This is an account of results in publication PMC8473235.

This series relates to GST-VPg (Tulane virus) (Tulane virus). The experiment in a line: ELASA.

Take “AGTATACGTATTACCTGCAGCAAGGCTTTTTTAAAGGCTAGGCTTGATAATCGGTTAACTCCGATATCTCGGAGATCTTGC [N4-2]”: the binding signal (positive:negative absorbance ratio) is > 10.
The value for “AGTATACGTATTACCTGCAGCAGGGATGTGTTGGATGCATGCCAGGCTTGGTAACATTGTACGATATCTCGGAGATCTTGC [N3]” was > 10; that for “AGTATACGTATTACCTGCAGCAGTGGGTGGTGATGAATTCTGGTCGCGCTGACAACCCGCGCGATATCTCGGAGATCTTGC [N14]” was > 10.
The value for “AGTATACGTATTACCTGCAGCCAGAGTTGATGTAAGCTTCGTGTTAGCTCAACTCTTATCGCGATATCTCGGAGATCTTGC [N6]” was > 10; that for “AGTATACGTATTACCTGCAGCCGGGTCTCGTCTATGCAGTACTCAAAACGCTTGAGGTACCGACGATATCTCGGAGATCTTGC [N1-2]” was > 10; that for “AGTATACGTATTACCTGCAGCTAGTAACGATTACCAAAATTCTCCCGAGGCTGACAACCCGCGATATCTCGGAGATCTTGC [T1-2]” was > 10.
With “AGTATACGTATTACCTGCAGCTCACACTCGTTTCTATTACTAAAACATCGTTCCTTTCAGCCGATATCTCGGAGATCTTGC [T5 (= N12-2)]” the figure was > 10; with “AGTATACGTATTACCTGCAGCTCGAGGTATGGCCTTGTCTAGGCGCACCTGACAACCCGGTGCGATATCTCGGAGATCTTGC [T9-2]”, > 10; with “AGTATACGTATTACCTGCAGCTCTTCGGTTTAATAAAGTTGGCTAGGAAAGTTTAAAACCGCGATATCTCGGAGATCTTGC [N13]”, > 5.
“AGTATACGTATTACCTGCAGCTGGAAGGCGGGAAGATTTTTGGTCGACCTGACAACCCGGTCGATATCTCGGAGATCTTGC [T9]”: the binding signal (positive:negative absorbance ratio) is > 10.
The value for “AGTATACGTATTACCTGCAGCTGTCGATAAAGTGAGTTAAGTCACCGGCCCGGCCTATTCGCGATATCTCGGAGATCTTGC [N11-2]” was > 10.
The value for “AGTATACGTATTACCTGCAGCTGTCGTTAATTATTCGTGATCTGACAACCCGATCACTCTCCGATATCTCGGAGATCTTGC [T10-2]” was > 10.
